Legend:
Assay in all cases: cryo-EM structure; human replisome: 150 nM CMG on fork DNA (60 nt or 15 nt 5′ flap) with 1.5-fold molar excess of AND-1, TIMELESS-TIPIN, CLASPIN and Pol α-primase; 25 mM HEPES-NaOH pH 7.6, 150 mM NaOAc, 0.5 mM TCEP, 500 μM AMP-PNP, 10 mM Mg(OAc)2, on ice; 10-30% glycerol gradient with glutaraldehyde and BS3 cross-linkers
Details in all cases: both partners purified
[1] = target: T1, human CMG (CDC45-MCM-GINS) replicative helicase (human, UniProt O75419 1-566; P49736 1-904; P25205 1-808; P33991 1-863; P33992 1-734; Q14566 …)
T1 construct: CDC45, human; MCM2, human; MCM3, human; MCM4, human; MCM5, human; MCM6, human; MCM7, human; PSF1, subunit of GINS, human; PSF2, subunit of GINS, human; PSF3, subunit of GINS, human; SLD5, subunit of GINS, human; the subunits are named in the methods for the MCM3-4A form, which was made as the wild type; copies: + + + + + + + + + +

[2] = target: T2, PRIM2 (human primase accessory subunit) (human, UniProt P49643 1-509)
T2 construct: PRIM2, human; modelled residues 1-5 (N terminus) and 17-252 (NTD); stood in the assay as a subunit of m18; also called PRIM2NTD; PRIM2_(Nterm)
T2 sequence: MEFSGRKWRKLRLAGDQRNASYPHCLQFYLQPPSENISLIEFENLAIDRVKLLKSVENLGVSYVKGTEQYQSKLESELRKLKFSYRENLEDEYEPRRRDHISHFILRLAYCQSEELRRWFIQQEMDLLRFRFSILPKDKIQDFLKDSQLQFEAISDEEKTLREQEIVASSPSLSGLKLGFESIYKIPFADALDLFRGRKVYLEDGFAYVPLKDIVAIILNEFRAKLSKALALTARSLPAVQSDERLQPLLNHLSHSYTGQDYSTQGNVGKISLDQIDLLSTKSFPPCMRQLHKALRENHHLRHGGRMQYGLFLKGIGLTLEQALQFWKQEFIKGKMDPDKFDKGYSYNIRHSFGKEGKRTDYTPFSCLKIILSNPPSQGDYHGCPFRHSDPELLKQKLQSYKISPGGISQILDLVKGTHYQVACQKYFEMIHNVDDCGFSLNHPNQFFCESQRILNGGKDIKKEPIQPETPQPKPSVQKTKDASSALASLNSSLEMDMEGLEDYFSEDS

[3] = target: T3, POLA1 (human Pol α catalytic subunit) (human, UniProt P09884 1-1462)
T3 construct: POLA1, human; modelled residues 1279-1445 and 1448-1458 (CTD); stood in the assay as a subunit of m18; also called POLA1CTD; POLA1_(exo-cat)
T3 sequence: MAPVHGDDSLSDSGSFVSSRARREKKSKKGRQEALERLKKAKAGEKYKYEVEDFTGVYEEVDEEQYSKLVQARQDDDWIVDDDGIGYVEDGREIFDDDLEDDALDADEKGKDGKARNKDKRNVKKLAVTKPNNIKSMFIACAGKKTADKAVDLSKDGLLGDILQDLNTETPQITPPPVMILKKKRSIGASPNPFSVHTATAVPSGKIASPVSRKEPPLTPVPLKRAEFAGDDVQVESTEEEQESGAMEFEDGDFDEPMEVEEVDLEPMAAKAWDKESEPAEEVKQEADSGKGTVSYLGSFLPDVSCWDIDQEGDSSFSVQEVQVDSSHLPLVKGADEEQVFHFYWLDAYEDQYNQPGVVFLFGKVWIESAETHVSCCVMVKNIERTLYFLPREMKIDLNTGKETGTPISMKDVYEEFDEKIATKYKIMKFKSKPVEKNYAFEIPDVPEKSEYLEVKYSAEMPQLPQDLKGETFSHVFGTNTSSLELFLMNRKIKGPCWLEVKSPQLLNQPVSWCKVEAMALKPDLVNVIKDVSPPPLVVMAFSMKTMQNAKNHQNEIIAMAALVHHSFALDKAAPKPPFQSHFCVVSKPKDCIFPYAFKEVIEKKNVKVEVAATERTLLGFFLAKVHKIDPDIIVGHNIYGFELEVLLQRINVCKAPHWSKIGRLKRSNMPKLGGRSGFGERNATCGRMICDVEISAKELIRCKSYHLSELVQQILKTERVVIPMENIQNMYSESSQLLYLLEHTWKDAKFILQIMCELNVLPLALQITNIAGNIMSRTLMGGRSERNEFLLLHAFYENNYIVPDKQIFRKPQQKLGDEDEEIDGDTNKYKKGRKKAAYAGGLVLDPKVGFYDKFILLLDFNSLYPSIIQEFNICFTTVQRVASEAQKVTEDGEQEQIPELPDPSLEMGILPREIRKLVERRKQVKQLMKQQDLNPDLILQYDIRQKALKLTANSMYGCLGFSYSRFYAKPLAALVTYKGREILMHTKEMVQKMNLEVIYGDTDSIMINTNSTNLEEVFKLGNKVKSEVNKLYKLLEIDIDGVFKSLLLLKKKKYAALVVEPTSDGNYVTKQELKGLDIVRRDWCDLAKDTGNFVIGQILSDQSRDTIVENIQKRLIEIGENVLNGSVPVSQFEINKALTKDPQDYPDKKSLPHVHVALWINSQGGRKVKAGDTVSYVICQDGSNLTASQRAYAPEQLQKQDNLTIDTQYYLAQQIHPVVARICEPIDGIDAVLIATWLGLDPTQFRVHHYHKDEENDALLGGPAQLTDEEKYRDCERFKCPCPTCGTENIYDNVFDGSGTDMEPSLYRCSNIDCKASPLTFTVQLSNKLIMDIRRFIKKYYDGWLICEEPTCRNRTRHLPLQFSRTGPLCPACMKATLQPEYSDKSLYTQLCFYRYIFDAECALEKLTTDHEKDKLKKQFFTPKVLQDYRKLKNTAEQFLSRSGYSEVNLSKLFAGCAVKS

B1: TIMELESS-TIPIN (human) (complex)
chain 1: MDLHMMNCELLATCSALGYLEGDTYHKEPDCLESVKDLIRYLRHEDETRDVRQQLGAAQILQSDLLPILTQHHQDKPLFDAVIRLMVNLTQPALLCFGNLPKEPSFRHHFLQVLTYLQAYKEAFASEKAFGVLSETLYELLQLGWEERQEEDNLLIERILLLVRNILHVPADLDQEKKIDDDASAHDQLLWAIHLSGLDDLLLFLASSSAEEQWSLHVLEIVSLMFRDQNPEQLAGVGQGRLAQERSADFAELEVLRQREMAEKKTRALQRGNRHSRFGGSYIVQGLKSIGERDLIFHKGLHNLRNYSSDLGKQPKKVPKRRQAARELSIQRRSALNVRLFLRDFCSEFLENCYNRLMGSVKDHLLREKAQQHDETYYMWALAFFMAFNRAASFRPGLVSETLSVRTFHFIEQNLTNYYEMMLTDRKEAASWARRMHLALKAYQELLATVNEMDISPDEAVRESSRIIKNNIFYVMEYRELFLALFRKFDERCQPRSFLRDLVETTHLFLKMLERFCRSRGNLVVQNKQKKRRKKKKKVLDQAIVSGNVPSSPEEVEAVWPALAEQLQCCAQNSELSMDSVVPFDAASEVPVEEQRAEAMVRIQDCLLAGQAPQALTLLRSAREVWPEGDVFGSQDISPEEEIQLLKQILSAPLPRQQGPEERGAEEEEEEEEEEEEELQVVQVSEKEFNFLDYLKRFACSTVVRAYVLLLRSYQQNSAHTNHCIVKMLHRLAHDLKMEALLFQLSVFCLFNRLLSDPAAGAYKELVTFAKYILGKFFALAAVNQKAFVELLFWKNTAVVREMTEGYGSLDDRSSSRRAPTWSPEEEAHLRELYLANKDVEGQDVVEAILAHLNTVPRTRKQIIHHLVQMGLADSVKDFQRKGTHIVLWTGDQELELQRLFEEFRDSDDVLGHIMKNITAKRSRARIVDKLLALGLVAERRELYKKRQKKLASSILPNGAESLKDFCQEDLEEEENLPEEDSEEEEEGGSEAEQVQGSLVLSNENLGQSLHQEGFSIPLLWLQNCLIRAADDREEDGCSQAVPLVPLTEENEEAMENEQFQQLLRKLGVRPPASGQETFWRIPAKLSPTQLRRAAASLSQPEEEQKLQPELQPKVPGEQGSDEEHCKEHRAQALRALLLAHKKKAGLASPEEEDAVGKEPLKAAPKKRQLLDSDEEQEEDEGRNRAPELGAPGIQKKKRYQIEDDEDD
chain 2: MLEPQENGVIDLPDYEHVEDETFPPFPPPASPERQDGEGTEPDEESGNGAPVRVPPKRTVKRNIPKLDAQRLISERGLPALRHVFDKAKFKGKGHEAEDLKMLIRHMEHWAHRLFPKLQFEDFIDRVEYLGSKKEVQTCLKRIRLDLPILHEDFVSNNDEVAENNEHDVTSTELDPFLTNLSESEMFASELSRSLTEEQQQRIERNKQLALERRQAKLLSNSQTLGNDMLMNTPRAHTVEEVNTDEDQKEESNGLNEDILDNPCNDAIANTLNEEETLLDQSFKNVQQQLDATSRNITEAR
notes: TIPIN, human; source: purified (Strep-Tactin XT resin, TEV protease, HiTrap Q HP, Superdex 200)
- binding result [1]: binds

B2: PRIM1 (human primase catalytic subunit) (natural protein)
chain: METFDPTELPELLKLYYRRLFPYSQYYRWLNYGGVIKNYFQHREFSFTLKDDIYIRYQSFNNQSDLEKEMQKMNPYKIDIGAVYSHRPNQHNTVKLGAFQAQEKELVFDIDMTDYDDVRRCCSSADICPKCWTLMTMAIRIIDRALKEDFGFKHRLWVYSGRRGVHCWVCDESVRKLSSAVRSGIVEYLSLVKGGQDVKKKVHLSEKIHPFIRKSINIIKKYFEEYALVNQDILENKESWDKILALVPETIHDELQQSFQKSHNSLQRWEHLKKVASRYQNNIKNDKYGPWLEWEIMLQYCFPRLDINVSKGINHLLKSPFSVHPKTGRISVPIDLQKVDQFDPFTVPTISFICRELDAISTNEEEKEENEAESDVKHRTRDYKKTSLAPYVKVFEHFLENLDKSRKGELLKKSDLQKDF
notes: PRIM1, human; modelled residues 9-349 and 386-408; stood in the assay as a subunit of m18
- binding result [2]: binds

B3: POLA2 (human Pol α accessory subunit) (natural protein)
chain: MSASAQQLAEELQIFGLDCEEALIEKLVELCVQYGQNEEGMVGELIAFCTSTHKVGLTSEILNSFEHEFLSKRLSKARHSTCKDSGHAGARDIVSIQELIEVEEEEEILLNSYTTPSKGSQKRAISTPETPLTKRSVSTRSPHQLLSPSSFSPSATPSQKYNSRSNRGEVVTSFGLAQGVSWSGRGGAGNISLKVLGCPEALTGSYKSMFQKLPDIREVLTCKIEELGSELKEHYKIEAFTPLLAPAQEPVTLLGQIGCDSNGKLNNKSVILEGDREHSSGAQIPVDLSELKEYSLFPGQVVIMEGINTTGRKLVATKLYEGVPLPFYQPTEEDADFEQSMVLVACGPYTTSDSITYDPLLDLIAVINHDRPDVCILFGPFLDAKHEQVENCLLTSPFEDIFKQCLRTIIEGTRSSGSHLVFVPSLRDVHHEPVYPQPPFSYSDLSREDKKQVQFVSEPCSLSINGVIFGLTSTDLLFHLGAEEISSSSGTSDRFSRILKHILTQRSYYPLYPPQEDMAIDYESFYVYAQLPVTPDVLIIPSELRYFVKDVLGCVCVNPGRLTKGQVGGTFARLYLRRPAADGAERQSPCIAVQVVRI
notes: POLA2, human; stood in the assay as a subunit of m18
- binding result [3]: binds

Source: publication PMC10501992, “How Pol α-primase is targeted to replisomes to prime eukaryotic DNA replication” (Molecular Cell, 2023)
